Experimental data from a protein production outcome set (Wang et al. 2014).

Test: label from the status in PepcDB records

Sequence | protein production
MHLRDRPGFGPGGPFRFRALPRAADKGTMMFKKILIANRGEIACRVIKTARKMGIQTVAVYSDADRNALHVSMADEAIHIGPPPANQSYIVIDKIMEAIKASGAEAVHPGYGFLSERMDFAAALEAAGVVFIGPPSGAIEAMGDKITSKKLAKEAGVSTVPGYMGLIADADEAVKISNEIGYPVMIKASAGGGGKGMRIAWSEAEVKEGFESSKNEAANSFGDDRIFIEKFVTQPRHIEIQVLADKHGNCVYLHERECSIQRRNQKVIEEAPSPFLDEATRKAMGEQACALAKAVGYASAGTVEFIVDGQKNFYFLEMNTRLQVEHPVTELITGIDLVEQMIRVAAGEKLPFQQSDLKINGWAMESRLYAEDPYRNFLPSIGRLTRYRPPVESVTPTSVVRNDTGVYEGGEISMYYDPMIAKLCTWAPTREAAIEEMRLALDTFEVEGIGHNLPFVGAVMDHPRFVKGDITTAFIAEEYPDGFQGAVLDEPTLRRVAAAAAAMNRVAEIRRTRISGTMNNHERHVGVDWVVALQGESYHVSIAADREGSTVSFSDGSSLRVTSDWTPGQPLASLMVDGRPLVMKVGKIPMGFRLRLRGADLKVNVRTPRQAELALLMPEKLPPDTSKYLLCPMPGLVVKINVAEGDEVQEGQALATVEAMKMENILRAERRGTVKKIAAAPGASLRVDDVIMEFE | failed
MLSSVFQVLGGLALFLLAMEMMTNGLKNAAGHHLRHMLGHWTRTPLRALFAGFVITGIVQHSGAVTVATIGFVNAGLMTLAQSLGVVFGSNIGTTMTGWLVSLIGFGFKIEAMALPLLAAGVGFKLVSRNPRNQFLGEALAGFALFFLGLSILKTALESSALGFQNGHLINADYGLPAFMLIGLLATVLTQSSSAALAIVLTAAAGGLIPLDNAAAAVIGANLGSTSTAALSALKATANARRLATGHILFNLVTGVIALLVLPAMLWLVNTLTNLLDLEANPAVSLALFHTLFNVLGAAIMLPFTQPFARFLGRLFRSKEEDNAEPRYLDDTLVTTPELAIGAVDQEMKRLIGHSRGLLRVCLDRESLEESDVRPKADAVRNLNLAITDYIGRLRAEKMHPSVVDALTLSIRTCRYLAEATELTLHLVRLRALARRTDFETLESVFNRYFEVIRALVASETPVPEQLQEAETVYHQLKAATLQKMIRREFSSSLGAQVLDELSAVRRLTDQWSKALYWQDGVGLLNQSHDQASAS | failed
MSYIPPHKRHSKDPTKPTPVPDSLVTKFKKNLDFKSSTSSVKRNKIIYSGDSISKWFLVGSNGIEDDVPSYVKFVPLSSDSVECRKGEKPSILMNNNVQNVNMNIGERKDERTQWLLVAEKVMEDLVLAYERVKTEMKEHHHVSRLVARFGKIFFYGSQAGPVAECSLKNLNKMFSTDLPMSYLQHIKSNVVPSHGFSIDKEKETYTVKVSHYSRPNATINCKCTRKEDGRLSMYKASLEFYVDLNPVRHLVVDVSCIDKNLDMRLTLTAKREITYLSDKEIGDIKALLESATVDPNVKGGLRWPFGKALSEDGYKEFEVCHVRATIYKNKTLRLRVRETDRFNETTGTGETKREVSLTLKDIDTKIQEQNTERGCVLEMLRDALGTIWDFLHCDAYLT | not failed
DHLILLPGWGLGSAPLEPLRDALHEREPHLNVLIEPLPSLDDAADWLDELDDNLPRDSWLAGWSLGGMLAGELAARRGDDCRGLLTLASNPCFRVREDWPNAMPAETFEDFFEAFLLEPHLTRKRFTLLVSQGARDPRTLARQLQVALPQLEREALVAGLQLLGQLDTRAALENFRGPQLHLFAEADALVPLAAAEALLEWLPDVEVSTLAASHGLPLECPDEVAGAILRFLRE | failed
MRYLLIILAFWLPLQSHAVEFDENTRFLPLGRAVQVFEDPTGTATIDSVSSPAGAQAFRPAPAGTFNAGYSRSAFWLKVELSYRPADADIHNDWLLELAYPPMDRVDFYAPDANGRPTLTWQTGDMLPFASRQFAQNNYLFQLELPPGQTRTLYVRISSEGSVQAPLNLWSTHAYLEAQPTKIYVFGLIYGVLLGMLVYNLFIYLSVREPDYLYYLLYVAAFGLYQMSINGVAIEYLWPDSPWWANASTPFLMALATLFACQFTRSFLGTVRLGRWLDRSLLTLIGAAVLVMCIALFLSYGPALRAATQLVMAGALTIYLAGIVAVVKGERVGRYFVLAWSVFMIGGLVFGLMLMGYMPNTFLTMYASHIGTLLEMAFLSMALADRINHARYQQEQTLLAYGKDLERLNQQLATSNRLKDEFLATLTHELRTPMNGVIGSLEVMQTLDMDDEVEMYQQTAASSARDMMSMINGILTLTELQAGVLYAECSAFAPVDLVDRLRERFSGAAQSKGLTLTLDLDDKLPPGIRGDAGKLYQCLECLVDNAIKFTRKGAVQVRFSGQPQDLERMYLRVEVMDSGIGFSHLDEALLYQHFLQVDGSMTREYGGLGIGLAICRKLVELQGGELSHRSEPGKGSCFTLSIPMLMAVPGAVRRAPEAKAQWGHVSRS | failed
MVWPHLYFSELEAQHIMTSIISSSWFKFSVVAASITGIMMLSGCAKKEAQDLTTLNIGFQKYGLLPIVKERGELDKILKKEGITIKWVEFPAGPQLLEGLNVGSVVFGEAGEAPPIFAQAANSNLVYVANQPAAPNAEALIVQKNSSVHSVQDLKGKRIALNKGSNVHYLLLKLLEKNHLTLNDIQVVYLPPADARAAFEKGAVDAWVIWDPFFAAAEQQIGARVIATGQDLVSNHQFYLADRKFAQNHPEVLKTLVKELNQSTEWVKTHQDDAAKLLEKPTALDFNILKTSISRMGFGVTPLSNTVINEQQQVADAFYQQKLIPQPLKIQDAILKGEIK | failed
GSESFDILTDPAQAKEVGTALGIFHQLLSDLSPSQLVDTLPGFHHTPIYLQQYQRALAQNPKLTGSLGPEINHCQRVIKTWLDQCGVLETAKAQGQLPLRLMHGDPKVNNILFDRQSGKAVSVIDLDTTKPGLIHYDLGDCLRSGCNLLGEETENWSAVEFDLDLCRAILEGYLPQCQHFLTAADYDYLCPAIVLISFELGLRFFTDYLNGDRYFKVKYPEHNLIRALVQFQLASHIQSQEDAIRRMIEDIRG | failed
MDRPETIAVKCEPMTVDSPSRPLKLVVLADLNFNPPETDDLDSSIPIPTPPPITRLSNEESHQEGGILTCKEVEPGEVEAKKISKVGKCRSRSKIESSSDCGVDADGDLANQGVPASREEKISNLKMGLIHVARKMPKNAHAHFILGLMFQRLGQSQKAIPEYEKAEEILLGCEPEIARPELLLLVQIHHGQCLLLDGFGDTDSVKELEGEELEEILSKLKDSIKLDVRQAAVWNTLGLMLLKAGCLMSAISVLSSLLALVPDNYDCLANLGVAYLQSGDMELSAKCFQDLVLKDHNHPAALINYAAELLCKHSSTVAGAGANGGADASEDQKAPMNVAKECLLAALRSDPKSAHAWVNLANSYYMMGDHRSSSKCLEKAAKLDPNCMATRFAVAVQRIKDAERSQDASDQLSWAGNEMASVIREGESVPIDPPIAWAGLAMAHKAQHEIAAAFVADRNELTEMEERAVYSLKQAVTEDPEDAVRWHQLGLHSLCSQQYKLSQKYLKAAVGRSRECSYAWSNLGISLQLSDEHSEAEEVYKRALTVSKEDQAHAILSNLGNLYRQKKQYEVSKAMFSKALELKPGYAPAYNNLGLVFVAERRWEEAKSCFEKSLEADSLLDAAQSNLLKATTMSRLCTCFSSSTVVRDS | failed
MKKIGILTSGGDCGGLNAVIKGAALMALNKGLELYVIPNGYAGLYNLLNQDRLVRLDEARLDQFQASFAGSEAGHSRVKIKAISNPDKYNRIKVGMKKFDLDALIISGGDDSGSVMIDLNHNGIQCIHCPKTMDLDLQTYSVGGDSTINRIAQFVEDLKTTGRTHNRVLVTEVFGRYAGHTAFRSGVAAEADCILIPEIPVDWDVVYEHIVERFTRRIRQSDVHSGTYTIVVAEGMKNADGTDIVDESAGIDAFGHKKLAGAGKYVCQEIKKRFKTDPRMPQFMKDTGMFVEGIYEIPEVREVHPGHLVRAGHSSAYDINFGFEAGAAAVLLLLEGKTGVTISKVKGRKIEYIEASKAIEQRYVDLDQVAMYESIGTCFGRTPAAYEPILREVDGVYERIY | failed
